{"source": "paper PMC11891296", "about": "“Mechanical forces and ligand binding modulate Pseudomonas aeruginosa PilY1 mechanosensitive protein” (Life Science Alliance, 2025)", "molecular_target": "T1, recombinant αVβ5 human integrin extracellular domains (human, UniProt P06756 31-992; P18084 24-719)", "T1 construct": "integrin alpha-V, human, extracellular domain; integrin beta-5, human, extracellular domain; also called integrin αVβ5 heterodimer; source: bought: R&D Systems", "T1 sequence (P06756 31-992, chain 1 of 2)": "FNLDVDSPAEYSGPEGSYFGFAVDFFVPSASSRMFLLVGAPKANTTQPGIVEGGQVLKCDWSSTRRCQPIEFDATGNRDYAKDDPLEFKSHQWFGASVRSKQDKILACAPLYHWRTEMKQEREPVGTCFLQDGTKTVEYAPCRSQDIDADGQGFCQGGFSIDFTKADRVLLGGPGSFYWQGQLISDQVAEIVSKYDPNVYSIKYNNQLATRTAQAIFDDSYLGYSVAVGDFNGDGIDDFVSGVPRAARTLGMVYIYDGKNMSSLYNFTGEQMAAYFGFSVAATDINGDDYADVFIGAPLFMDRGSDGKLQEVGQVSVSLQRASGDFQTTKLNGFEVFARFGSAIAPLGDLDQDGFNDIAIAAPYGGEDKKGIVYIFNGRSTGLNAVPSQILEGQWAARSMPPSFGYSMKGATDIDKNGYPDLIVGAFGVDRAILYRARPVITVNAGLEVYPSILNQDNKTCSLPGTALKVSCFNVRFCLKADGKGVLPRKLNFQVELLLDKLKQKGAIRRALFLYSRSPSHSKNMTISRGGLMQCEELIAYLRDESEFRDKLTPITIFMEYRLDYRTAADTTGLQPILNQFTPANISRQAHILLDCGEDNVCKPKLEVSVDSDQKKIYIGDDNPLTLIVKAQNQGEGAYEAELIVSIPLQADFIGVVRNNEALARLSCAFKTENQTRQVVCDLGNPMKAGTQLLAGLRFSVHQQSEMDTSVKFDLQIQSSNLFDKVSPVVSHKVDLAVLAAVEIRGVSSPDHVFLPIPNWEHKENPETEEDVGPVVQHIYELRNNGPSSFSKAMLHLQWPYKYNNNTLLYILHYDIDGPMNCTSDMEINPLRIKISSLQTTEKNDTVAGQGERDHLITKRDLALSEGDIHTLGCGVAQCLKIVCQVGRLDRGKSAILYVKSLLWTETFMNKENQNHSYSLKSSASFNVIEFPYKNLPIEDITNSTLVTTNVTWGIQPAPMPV", "T1 sequence (P18084 24-719, chain 2 of 2)": "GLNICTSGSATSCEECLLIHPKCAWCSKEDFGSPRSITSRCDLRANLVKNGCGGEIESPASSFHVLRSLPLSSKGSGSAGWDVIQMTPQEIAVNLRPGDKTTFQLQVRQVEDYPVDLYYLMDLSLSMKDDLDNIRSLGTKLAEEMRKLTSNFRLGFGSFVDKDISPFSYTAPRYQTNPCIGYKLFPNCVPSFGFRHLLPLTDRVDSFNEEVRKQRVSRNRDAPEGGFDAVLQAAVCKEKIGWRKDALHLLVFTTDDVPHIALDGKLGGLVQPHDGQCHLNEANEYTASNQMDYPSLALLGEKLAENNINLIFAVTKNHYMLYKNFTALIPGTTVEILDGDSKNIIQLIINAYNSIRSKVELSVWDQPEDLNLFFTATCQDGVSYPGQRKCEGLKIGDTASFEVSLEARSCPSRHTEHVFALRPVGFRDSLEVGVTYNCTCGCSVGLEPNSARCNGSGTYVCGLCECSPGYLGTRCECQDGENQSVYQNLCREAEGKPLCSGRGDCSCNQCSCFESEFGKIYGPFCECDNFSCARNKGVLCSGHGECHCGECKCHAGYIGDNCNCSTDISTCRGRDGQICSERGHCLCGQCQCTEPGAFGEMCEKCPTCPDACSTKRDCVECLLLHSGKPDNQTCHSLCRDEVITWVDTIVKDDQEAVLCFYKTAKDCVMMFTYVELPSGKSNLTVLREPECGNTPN", "assay": "single-molecule magnetic tweezers; PilY1 construct tethered between HaloTag-ligand glass and streptavidin-coated superparamagnetic bead, held at constant low force (5-6 pN, below 7 pN) where I1 and I2 fold and unfold; 200 nM integrin added in binding buffer (10 mM Hepes pH 7.2, 150 mM NaCl, 10 mM ascorbic acid, 2 mM CaCl2, 1 mM MgCl2, 1 mM MnCl2); binding read as shortening of the unfolded extension of I2", "conditions": "both partners purified", "data": [{"binder": "PilY1^501−1161 chimeric polyprotein (HaloTag-(I32)2-PilY1 residues 501-1161-(I32)2-HisTag-AviTag) (domain or fragment, biotin on the AviTag, gene optimized for expression in E. coli; The HisTag lies between the last I32 and the AviTag; also called PilY1 C-terminal section; source: E. coli BL21 Star, purified (HisPur Cobalt resin, Superdex 200 SEC), biotinylated in vitro; not shown: HaloTag, N-terminal, kept; 2x human titin I32 domain, N-terminal, kept; 2x human titin I32 domain, C-terminal, kept; AviTag (biotinylated), C-terminal, kept) ISSSLQEDDTGDKLTRFAYQTSFASDKNWAGDLTRYSLTTQDKATVQTKLWSAQSILDAMPNGGAGRKIMMAGSGTSGLKEFTWGSLSADQQRQLNRDPDRNDVADTKGQDRVAFLRGDRRKENSDNFRTRNSILGDIINSSPATVGKAQYLTYLAQPIEPSGNYSTFAEAQKTRAPRVYVGANDGMLHGFDTDGNETFAFIPSAVFEKLHKLTARGYQGGAHQFYVDGSPVVADAFFGGAWHTVLIGSLRAGGKGLFALDVTDPANIKLLWEIGVDQEPDLGYSFPKPTVARLHNGKWAVVTGNGYSSLNDKAALLIIDLETGAITRKLEVTGRTGVPNGLSSPRLADNNSDGVADYAYAGDLQGNLWRFDLIAGKVNQDDPFSRANDGPAVASSFRVSFGGQPLYSAVDSAGAAQAITAAPSLVRHPTRKGYIVIFGTGKYFENADARADTSRAQTLYGIWDQQTKGEAAGSTPRLTRGNLQQQTLDLQADSTFASTARTIRIASQNPVNWLNNDGSTKQSGWYLDFMVNGTLKGEMLIEDMIAIGQVVLLQTITPNDDPCADGASNWTYGLDPYTGGRTSFTVFDLARQGVVDSKSDYSYNKQNVAVSGTEQKGLGGLTLSTNEQGNPEVCSSGECLTVNPGPNTRGRQNWRPIEGKN", "values": [{"measurement": "binding result", "result": "binds"}]}]}
